This is an account of results in the supplement of paper PMC10126150.

The test system of this series is ATP. Briefly: switch fluorescence ratio, 500 uM ATP over buffer (Cy3 cluster intensity, sum of 5 cycles each) (fold (ratio)); higher = stronger signal-on switching upon ATP binding; sequences stand for … in TCGTCGGCAGCGTCAGATGTGTATAAGAGACAGTTTTTTTTTTTTTTTTTTTTTTTTT…TC. The note with it: aptamer strand: ATP DNA aptamer (quencher-CACCTGGGGGAGTATTGCGGAGGAAGG + anchor), 100 nM annealed; ATP concentration: 500 uM. The procedure, abridged: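 After annealing to 100 nM quencher-labelled ATP aptamer, Cy3-labelled switching-strand clusters on a modified Illumina MiSeq flow-cell were imaged in selection buffer. A second image followed after 15 min with 500 uM ATP at 22 °C, and five such buffer/ATP cycles were done, each separated by NaOH stripping and re-annealing. The fluorescence ratio, averaged per switch-domain sequence, is summed target-cycle over summed buffer-cycle Cy3 intensity per cluster, with clusters outside 100-1000 RFU excluded.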

± gives the standard deviation of the averaged measurements.
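Further: ATP exposure 15 min at 22 °C before imaging.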

Turning to TGGGGGCACT, the switch fluorescence ratio was found to be 0.982 ± 0.022. Under TGGGGGCTAC stands 1 ± 0.01. Under TGGGGGGAAT stands 1.03 ± 0.1; under TGGGGGGACG, 1.03 ± 0.086; under TGGGGGGAG, 1.0137 ± 0.00093. The value for TGGGGGGAGG was 1 ± 0.036; that for TGGGGGGAGT was 1.01 ± 0.024; that for TGGGGGGATG was 0.996 ± 0.011.

As to TGGGGGGGAC, the switch fluorescence ratio was determined as 1.04 ± 0.069. Under TGGGGGGGG stands 1.01 ± 0.05; under TGGGGGGTAG, 0.988 ± 0.02. Under TGGGGGTAGT stands 0.99 ± 0.022; under TGGGGGTCGT, 1.02 ± 0.024; under TGGGGGTGGT, 1 ± 0.028. Under TGGGGGTTGT stands 0.987 ± 0.025; under TGGGGTAATC, 1.03 ± 0.07; under TGGGGTAGGA, 0.988 ± 0.029. Turning to TGGGGTATAC, the switch fluorescence ratio turned out to be 1.02 ± 0.038. Under TGGGGTATCT stands 1 ± 0.019; under TGGGGTGACA, 1.01 ± 0.054; under TGGGGTGAGG, 1 ± 0.035. Under TGGGGTGCCG stands 1.12 ± 0.039; under TGGGGTGGTT, 1.03 ± 0.015. As to TGGGGTTAAA, the switch fluorescence ratio came to 0.997 ± 0.016. Under TGGGGTTCGT stands 0.998 ± 0.066; under TGGGGTTCTG, 0.9832 ± 0.0022. The value for TGGGGTTTAT was 1.01 ± 0.02; that for TGGGGTTTGG was 0.984 ± 0.036; that for TGGGTAAAAT was 0.971 ± 0.03. Regarding TGGGTAAAGG, the switch fluorescence ratio was found to be 0.956 ± 0.015. Under TGGGTAAATT stands 0.983 ± 0.014; under TGGGTAAGCA, 1.03 ± 0.023; under TGGGTAAGTT, 0.996 ± 0.039. The value for TGGGTACGTC was 0.998 ± 0.026. In the case of TGGGTACTGG, the switch fluorescence ratio came to 1.02 ± 0.018.

Take TGGGTAGATA: the switch fluorescence ratio is 0.985 ± 0.045. Under TGGGTAGTGC stands 0.997 ± 0.029; under TGGGTATAGA, 1.01 ± 0.032. Under TGGGTATGTT stands 1.02 ± 0.014. The value for TGGGTATTAT was 0.9997 ± 0.0052. For the sequence TGGGTCGGGG, the switch fluorescence ratio came out at 0.985 ± 0.016.

With TGGGTGAAAA, the switch fluorescence ratio came out at 1.001 ± 0.0036. The value for TGGGTGAAGG was 0.999 ± 0.022; that for TGGGTGATAA was 1.04 ± 0.048; that for TGGGTGATGT was 0.996 ± 0.066. Turning to TGGGTGCATT, the switch fluorescence ratio is 1.014 ± 0.0044. The value for TGGGTGCCGA was 0.989 ± 0.011; that for TGGGTGCGCA was 1.03 ± 0.025. The value for TGGGTGGCTC was 1.011 ± 0.0015; that for TGGGTGGTGG was 0.983 ± 0.016. Under TGGGTGTCCA stands 1 ± 0.021; under TGGGTGTGGA, 1.01 ± 0.051; under TGGGTGTTTT, 1.05 ± 0.12. With TGGGTTAAAT, the switch fluorescence ratio is 0.995 ± 0.023. With TGGGTTACAT, the switch fluorescence ratio stood at 1.01 ± 0.031.

As for TGGGTTAGAG, the switch fluorescence ratio came to 0.9878 ± 0.0052. The value for TGGGTTAGGC was 0.97 ± 0.013. On to TGGGTTATGA, for which the switch fluorescence ratio was 0.9941 ± 0.0084. For the sequence TGGGTTATTG, the switch fluorescence ratio amounted to 0.998 ± 0.019. Regarding TGGGTTCAGG, the switch fluorescence ratio was determined as 1 ± 0.015. Turning to TGGGTTCGTA, the switch fluorescence ratio amounted to 0.994 ± 0.031. In the case of TGGGTTGTTT, the switch fluorescence ratio worked out at 0.986 ± 0.031. The value for TGGGTTTAAT was 1.03 ± 0.018.

On to TGGGTTTGTT, for which the switch fluorescence ratio amounted to 0.986 ± 0.03. Turning to TGGGTTTTAA, the switch fluorescence ratio came out at 0.999 ± 0.025. Under TGGTAAAGGC stands 0.979 ± 0.042; under TGGTAAATGG, 1.01 ± 0.019; under TGGTAATAGT, 1.02 ± 0.038. Under TGGTAATGTG stands 1.01 ± 0.096; under TGGTAATTAT, 0.974 ± 0.023; under TGGTACGGTT, 0.975 ± 0.015. Under TGGTAGACGT stands 0.968 ± 0.016. Take TGGTAGGAGA: the switch fluorescence ratio was 0.979 ± 0.013. The value for TGGTAGGGGA was 1.04 ± 0.03; that for TGGTAGGGGC was 1.02 ± 0.057. The value for TGGTAGTGGG was 0.98 ± 0.026; that for TGGTATAATC was 1.001 ± 0.0038; that for TGGTATAGTC was 1.001 ± 0.0059. The value for TGGTATCAGC was 0.999 ± 0.048. With TGGTATGCCC, the switch fluorescence ratio was found to be 1.04 ± 0.088. The value for TGGTATGCGG was 1.02 ± 0.013. Regarding TGGTATTTTG, the switch fluorescence ratio came to 0.977 ± 0.024.

Regarding TGGTCAGCTT, the switch fluorescence ratio came out at 0.994 ± 0.017. The value for TGGTCAGGGT was 0.9735 ± 0.0097; that for TGGTCCAGG was 1.15 ± 0.14; that for TGGTCCTATG was 1.01 ± 0.054. Under TGGTCGCATT stands 1.01 ± 0.034. Under TGGTCGGGGC stands 0.974 ± 0.025; under TGGTCGTACG, 0.937 ± 0.071; under TGGTCGTATT, 0.9577 ± 0.0063. As to TGGTCGTGTG, the switch fluorescence ratio is 1 ± 0.027. The value for TGGTCTTCGT was 0.992 ± 0.057; that for TGGTGACCGT was 1 ± 0.025; that for TGGTGAGGGA was 0.99 ± 0.014.

As for TGGTGAGGGC, the switch fluorescence ratio is 0.9816 ± 0.0077. Under TGGTGCAATC stands 2.36 ± 0.86; under TGGTGCAGCT, 1.005 ± 0.0059; under TGGTGCCCAC, 1.01 ± 0.027. With TGGTGCGGCG, the switch fluorescence ratio amounted to 1.09 ± 0.031. As for TGGTGCTGTT, the switch fluorescence ratio was 0.985 ± 0.03. On to TGGTGGAGGG, for which the switch fluorescence ratio worked out at 1 ± 0.032.

As for TGGTGGCACG, the switch fluorescence ratio worked out at 0.965 ± 0.011. The value for TGGTGGCCCT was 1.01 ± 0.06; that for TGGTGGGGTA was 0.998 ± 0.022. As to TGGTGGGTCG, the switch fluorescence ratio was determined as 1.08 ± 0.069. Turning to TGGTGGTGGG, the switch fluorescence ratio was found to be 1.02 ± 0.018. As for TGGTGGTTCT, the switch fluorescence ratio worked out at 0.987 ± 0.029. In the case of TGGTGTATGG, the switch fluorescence ratio amounted to 1.01 ± 0.035.

Turning to TGGTGTGGAA, the switch fluorescence ratio stood at 0.9806 ± 0.0027. Under TGGTGTGGGT stands 0.989 ± 0.014; under TGGTGTGTAC, 1.06 ± 0.076; under TGGTGTTTGC, 1 ± 0.038. As for TGGTGTTTT, the switch fluorescence ratio turned out to be 0.998 ± 0.024. With TGGTTAACAG, the switch fluorescence ratio was found to be 0.999 ± 0.022. As to TGGTTAAGAT, the switch fluorescence ratio was 0.999 ± 0.038. Regarding TGGTTATCTT, the switch fluorescence ratio stood at 0.969 ± 0.011. In the case of TGGTTATGAA, the switch fluorescence ratio is 0.998 ± 0.03. The value for TGGTTATGGC was 0.923 ± 0.082; that for TGGTTATGGT was 0.992 ± 0.037.

For the sequence TGGTTCATCG, the switch fluorescence ratio is 0.97771 ± 0.00071.
